US20180037645A1 (Bristol-Myers Squibb, published 2018)

Molecular target: human IL-23Rα / human IL-12Rβ1 on BaF3 transfectants (human, UniProt Q5VWK5 24-629; P42701 24-662)
Assay: cell-based or functional assay

Chain of human IL-23Rα / human IL-12Rβ1 on BaF3 transfectants (Q5VWK5 24-629, chain 1 of 2, other chains not shown): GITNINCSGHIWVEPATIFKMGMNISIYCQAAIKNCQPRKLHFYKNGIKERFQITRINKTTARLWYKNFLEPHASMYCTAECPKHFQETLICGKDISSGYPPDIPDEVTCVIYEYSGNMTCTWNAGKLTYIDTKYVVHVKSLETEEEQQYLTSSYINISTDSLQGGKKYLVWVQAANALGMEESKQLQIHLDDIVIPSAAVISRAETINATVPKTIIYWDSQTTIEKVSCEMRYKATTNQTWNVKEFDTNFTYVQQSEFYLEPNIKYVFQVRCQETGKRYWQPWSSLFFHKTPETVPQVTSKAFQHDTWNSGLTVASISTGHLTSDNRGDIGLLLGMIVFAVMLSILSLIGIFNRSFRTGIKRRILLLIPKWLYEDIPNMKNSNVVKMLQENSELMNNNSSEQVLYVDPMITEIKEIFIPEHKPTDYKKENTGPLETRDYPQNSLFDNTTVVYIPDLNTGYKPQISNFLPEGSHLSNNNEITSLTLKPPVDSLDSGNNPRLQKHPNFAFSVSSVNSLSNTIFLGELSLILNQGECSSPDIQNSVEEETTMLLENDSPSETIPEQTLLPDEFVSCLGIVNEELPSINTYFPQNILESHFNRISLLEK

Binder	EC50, pSTAT3 in BaF3/huIL-23Rα/huIL-12Rβ1 transfectants
IL-23 alanine shave mutant M5 (ligand, human) chain 1: RAVPGGSSPAWTQCQQLSQKLCTLAWSAHPLVGAADLREEGDEETTNDVPHIQCGDGCDPQGLRDNSQFCLQRIHQGLIFYEKLLGSDIFTGAPSLAPASPVGQLHASLLGLSQLLQPEGHHWETQQIPSLSPSQPWQRLLLRFKILRSLQAFVAVAARVFAHGAATLSP chain 2: IWELKKDVYVVELDWYPDAPGEMVVLTCDTPEEDGITWTLDQSSEVLGSGKTLTIQVKEFGDAGQYTCHKGGEVLSHSLLLLHKKEDGIWSTDILKDQKEPKNKTFLRCEAKNYSGRFTCWWLTTISTDLTFSVKSSRGSSDPQGVTCGAATLSAERVRGDNKEYEYSVECQEDSACPAAEESLPIEVMVDAVHKLKYENYTSSFFIRDIIKPDPPKNLQLKPLKNSRQVEVSWEYPDTWSTPHSYFSLTFCVQVQGKSKREKKDRVFTDKTSATVICRKNASISVRAQDRYYSSSWSEWASVPCS	26 pM
IL-23 alanine shave mutant M10 (ligand, human) chain 1: RAVPGGSSPAWTQCQQLSQKLCTLAWSAHPLVGAAALREEGDEETTNDVPHIQCGDGCDPQGLRDNSQFCLQRIHQGLIFYEKLLGSDIFTGEPSLLPDSPVGQLHASLLGLSQLLQPEGHHWETQQIPSLSPSQPWQRLLLRAKILRSLQAFVAVAARVFAHGAATLSP chain 2: IWELKKDVYVVELDWYPDAPGEMVVLTCDTPEEDGITWTLDQSSEVLGSGKTLTIQVKEFGDAGQYTCHKGGEVLSHSLLLLHKKEDGIWSTDILKDQKEPKNKTFLRCEAKNYSGRFTCWWLTTISTDLTFSVKSSRGSSDPQGVTCGAATLSAERVRGDNKEYEYSVECQEDSACPAAEESLPIEVMVDAVHKLKYENYTSSFFIRDIIKPDPPKNLQLKPLKNSRQVEVSWEYPDTWSTPHSYFSLTFCVQVQGKSKREKKDRVFTDKTSATVICRKNASISVRAQDRYYSSSWSEWASVPCS	19 pM
IL-23 alanine shave mutant M7 (ligand, human) chain 1: RAVPGGSSPAWTQCQQLSQKLCTLAWSAHPLVGHMDLREEGDEETTNDVPHIQCGDGCDPQGLRDNSQFCLQRIHQGLIFYEKLLGSDIFTGEPSLLPDSPVGQLHASLLGLSQLLQPEGHHAAAAAIPSLSPSQPWQRLLLRFKILRSLQAFVAVAARVFAHGAATLSP chain 2: IWELKKDVYVVELDWYPDAPGEMVVLTCDTPEEDGITWTLDQSSEVLGSGKTLTIQVKEFGDAGQYTCHKGGEVLSHSLLLLHKKEDGIWSTDILKDQKEPKNKTFLRCEAKNYSGRFTCWWLTTISTDLTFSVKSSRGSSDPQGVTCGAATLSAERVRGDNKEYEYSVECQEDSACPAAEESLPIEVMVDAVHKLKYENYTSSFFIRDIIKPDPPKNLQLKPLKNSRQVEVSWEYPDTWSTPHSYFSLTFCVQVQGKSKREKKDRVFTDKTSATVICRKNASISVRAQDRYYSSSWSEWASVPCS	21 pM
IL-23 alanine shave mutant M9 (ligand, human) chain 1: RAVPGGSSPAWTQCQQLSQKLCTLAWSAHPLVGHMDLREEGDEETTNDVPHIQCGDGCDPQGLRDNSQFCLQRIHQGLIFYEKLLGSDIFTGEPSLAPASPVGALHASLLGLSQLLQPEGHHWETQQIPSLSPSQPWQRLLLRFKILRSLQAFVAVAARVFAHGAATLSP chain 2: IWELKKDVYVVELDWYPDAPGEMVVLTCDTPEEDGITWTLDQSSEVLGSGKTLTIQVKEFGDAGQYTCHKGGEVLSHSLLLLHKKEDGIWSTDILKDQKEPKNKTFLRCEAKNYSGRFTCWWLTTISTDLTFSVKSSRGSSDPQGVTCGAATLSAERVRGDNKEYEYSVECQEDSACPAAEESLPIEVMVDAVHKLKYENYTSSFFIRDIIKPDPPKNLQLKPLKNSRQVEVSWEYPDTWSTPHSYFSLTFCVQVQGKSKREKKDRVFTDKTSATVICRKNASISVRAQDRYYSSSWSEWASVPCS	33 pM
